This experiment deals with TcdB from C. difficile strain M68 (Clostridium difficile strain M68). Briefly: cell-based or functional assay.

Where “and” joins values, the source holds several entries; their conditions need not be identical. Identical values can stand only once.

B1: dimeric DARPin U3D16 (designed binder)
chain: GSDLGKKLLEAARAGQDDEVRILMANGADVNADDRIGMTPLHLAAIGGHLEIVEVLLKNGADVNADDVHGRTPLHLAAGRGHLEIVEVLHGADVNAPDRWGRTPLHLAAHHGHLEIVEVLLKYGADVNAQDKFGKTAFDISIDSGNEDLAEILQSSSGGGGSGGGGSGGGGSGSDLGKKLLEAARAGQDDEVRILMANGADVNAADRYGPTPLHLAAYRGHLEIVEVLLKHGADVNAKDVLGWTPLHLAAWIGHLEIVEVLLKNGADVNARDRTGETPLHLAAAIGHLEIVEVLLKNGADVNAQDKFGKTAFDISIDNGNEDLAEILQSSS
Take B1: the fold higher neutralization activity than D16 alone was 10 fold and 20 fold.

B2: DARPin dimer DLD-4 (designed binder)
chain: GSDLGKKLLEAARAGQDDEVRILMANGADVNADDRIGMTPLHLAAIGGHLEIVEVLLKNGADVNADDVHGRTPLHLAAGRGHLEIVEVLHGADVNAPDRWGRTPLHLAAHHGHLEIVEVLLKYGADVNAQDKFGKTAFDISIDNGNEDLAEILQSSSEFGGGGSGGGGSGGGGSASDLGKKLLEAARAGQDDEVRILMANGADVNATDHLGVTPLHLAAVLGHLEIVEVLLKHGADVNAYDILGRTPLHLAAWRGHLEIVEVLLKYGADVNADDTSGTTPLHLAAGEGHLEIVEVLLKYGADVNAQDKFGKTAFDISIDNGNEDLAEILQSSS
In turn, B2 returned an EC50 against TcdB (in vitro neutralization) of 0.02 nM; a TcdB neutralization EC50 (Vero cells, CellTiterGlo) of 0.016 nM; a fold more efficacious than bezlotoxumab at inhibiting TcdB (CellTiter-Glo assay) of 33 fold.

These data come from US20220226430A1.
